Assay results as given in article PMC12416549 (2024).

T1: TNFR1 (Homo sapiens, UniProt P19438)
T1 chain: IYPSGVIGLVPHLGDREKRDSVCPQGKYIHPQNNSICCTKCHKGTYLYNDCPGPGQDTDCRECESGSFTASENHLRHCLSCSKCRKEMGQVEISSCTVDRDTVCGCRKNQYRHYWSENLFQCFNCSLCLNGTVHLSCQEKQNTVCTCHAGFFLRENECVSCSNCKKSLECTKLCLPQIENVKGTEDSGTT


Target: T1, TNFR1
Assay: yeast display SC50

Binder | apparent Kd (screen) [nM]
A23C (designed binder) MTLQELLREEALRRAEAEAFRYCLELLAEKFPEQKEYLLDLAEEIESQIRSLSGVDVEDVRKFLDKEWAWVKELLAEHPAELAEVEAARAARLAELRAEVEAKVAA | 0.446
L41D (designed binder) MTLQELLREEALRRAEAEAFRYALELLAEKFPEQKEYLLDDAEEIESQIRSLSGVDVEDVRKFLDKEWAWVKELLAEHPAELAEVEAARAARLAELRAEVEAKVAA | 1.27
E73Q (designed binder) MTLQELLREEALRRAEAEAFRYALELLAEKFPEQKEYLLDLAEEIESQIRSLSGVDVEDVRKFLDKEWAWVKQLLAEHPAELAEVEAARAARLAELRAEVEAKVAA | 0.446
I45L (designed binder) MTLQELLREEALRRAEAEAFRYALELLAEKFPEQKEYLLDLAEELESQIRSLSGVDVEDVRKFLDKEWAWVKELLAEHPAELAEVEAARAARLAELRAEVEAKVAA | 0.539
R89F (designed binder) MTLQELLREEALRRAEAEAFRYALELLAEKFPEQKEYLLDLAEEIESQIRSLSGVDVEDVRKFLDKEWAWVKELLAEHPAELAEVEAAFAARLAELRAEVEAKVAA | 1.05
P32E (designed binder) MTLQELLREEALRRAEAEAFRYALELLAEKFEEQKEYLLDLAEEIESQIRSLSGVDVEDVRKFLDKEWAWVKELLAEHPAELAEVEAARAARLAELRAEVEAKVAA | 0.49
D56G (designed binder) MTLQELLREEALRRAEAEAFRYALELLAEKFPEQKEYLLDLAEEIESQIRSLSGVGVEDVRKFLDKEWAWVKELLAEHPAELAEVEAARAARLAELRAEVEAKVAA | 0.956
V60Q (designed binder) MTLQELLREEALRRAEAEAFRYALELLAEKFPEQKEYLLDLAEEIESQIRSLSGVDVEDQRKFLDKEWAWVKELLAEHPAELAEVEAARAARLAELRAEVEAKVAA | 0.718
K30D (designed binder) MTLQELLREEALRRAEAEAFRYALELLAEDFPEQKEYLLDLAEEIESQIRSLSGVDVEDVRKFLDKEWAWVKELLAEHPAELAEVEAARAARLAELRAEVEAKVAA | 1.27
R92N (designed binder) MTLQELLREEALRRAEAEAFRYALELLAEKFPEQKEYLLDLAEEIESQIRSLSGVDVEDVRKFLDKEWAWVKELLAEHPAELAEVEAARAANLAELRAEVEAKVAA | 0.718
L52H (designed binder) MTLQELLREEALRRAEAEAFRYALELLAEKFPEQKEYLLDLAEEIESQIRSHSGVDVEDVRKFLDKEWAWVKELLAEHPAELAEVEAARAARLAELRAEVEAKVAA | 6.43
E36F (designed binder) MTLQELLREEALRRAEAEAFRYALELLAEKFPEQKFYLLDLAEEIESQIRSLSGVDVEDVRKFLDKEWAWVKELLAEHPAELAEVEAARAARLAELRAEVEAKVAA | 0.539
Y22V (designed binder) MTLQELLREEALRRAEAEAFRVALELLAEKFPEQKEYLLDLAEEIESQIRSLSGVDVEDVRKFLDKEWAWVKELLAEHPAELAEVEAARAARLAELRAEVEAKVAA | 0.79
E5N (designed binder) MTLQNLLREEALRRAEAEAFRYALELLAEKFPEQKEYLLDLAEEIESQIRSLSGVDVEDVRKFLDKEWAWVKELLAEHPAELAEVEAARAARLAELRAEVEAKVAA | 0.446
